The numbers were not newly measured in PMC3814599, which cites them from elsewhere.

The series has as its target HIV-1 capsid (CA) NTD (Human immunodeficiency virus 1) (UniProt O93182).

Several values for one entry are separate records, joined by “and”; a condition that tells them apart may be missing. Identical values can stand only once.

Sequence of NUP358 (P49792 whole entry): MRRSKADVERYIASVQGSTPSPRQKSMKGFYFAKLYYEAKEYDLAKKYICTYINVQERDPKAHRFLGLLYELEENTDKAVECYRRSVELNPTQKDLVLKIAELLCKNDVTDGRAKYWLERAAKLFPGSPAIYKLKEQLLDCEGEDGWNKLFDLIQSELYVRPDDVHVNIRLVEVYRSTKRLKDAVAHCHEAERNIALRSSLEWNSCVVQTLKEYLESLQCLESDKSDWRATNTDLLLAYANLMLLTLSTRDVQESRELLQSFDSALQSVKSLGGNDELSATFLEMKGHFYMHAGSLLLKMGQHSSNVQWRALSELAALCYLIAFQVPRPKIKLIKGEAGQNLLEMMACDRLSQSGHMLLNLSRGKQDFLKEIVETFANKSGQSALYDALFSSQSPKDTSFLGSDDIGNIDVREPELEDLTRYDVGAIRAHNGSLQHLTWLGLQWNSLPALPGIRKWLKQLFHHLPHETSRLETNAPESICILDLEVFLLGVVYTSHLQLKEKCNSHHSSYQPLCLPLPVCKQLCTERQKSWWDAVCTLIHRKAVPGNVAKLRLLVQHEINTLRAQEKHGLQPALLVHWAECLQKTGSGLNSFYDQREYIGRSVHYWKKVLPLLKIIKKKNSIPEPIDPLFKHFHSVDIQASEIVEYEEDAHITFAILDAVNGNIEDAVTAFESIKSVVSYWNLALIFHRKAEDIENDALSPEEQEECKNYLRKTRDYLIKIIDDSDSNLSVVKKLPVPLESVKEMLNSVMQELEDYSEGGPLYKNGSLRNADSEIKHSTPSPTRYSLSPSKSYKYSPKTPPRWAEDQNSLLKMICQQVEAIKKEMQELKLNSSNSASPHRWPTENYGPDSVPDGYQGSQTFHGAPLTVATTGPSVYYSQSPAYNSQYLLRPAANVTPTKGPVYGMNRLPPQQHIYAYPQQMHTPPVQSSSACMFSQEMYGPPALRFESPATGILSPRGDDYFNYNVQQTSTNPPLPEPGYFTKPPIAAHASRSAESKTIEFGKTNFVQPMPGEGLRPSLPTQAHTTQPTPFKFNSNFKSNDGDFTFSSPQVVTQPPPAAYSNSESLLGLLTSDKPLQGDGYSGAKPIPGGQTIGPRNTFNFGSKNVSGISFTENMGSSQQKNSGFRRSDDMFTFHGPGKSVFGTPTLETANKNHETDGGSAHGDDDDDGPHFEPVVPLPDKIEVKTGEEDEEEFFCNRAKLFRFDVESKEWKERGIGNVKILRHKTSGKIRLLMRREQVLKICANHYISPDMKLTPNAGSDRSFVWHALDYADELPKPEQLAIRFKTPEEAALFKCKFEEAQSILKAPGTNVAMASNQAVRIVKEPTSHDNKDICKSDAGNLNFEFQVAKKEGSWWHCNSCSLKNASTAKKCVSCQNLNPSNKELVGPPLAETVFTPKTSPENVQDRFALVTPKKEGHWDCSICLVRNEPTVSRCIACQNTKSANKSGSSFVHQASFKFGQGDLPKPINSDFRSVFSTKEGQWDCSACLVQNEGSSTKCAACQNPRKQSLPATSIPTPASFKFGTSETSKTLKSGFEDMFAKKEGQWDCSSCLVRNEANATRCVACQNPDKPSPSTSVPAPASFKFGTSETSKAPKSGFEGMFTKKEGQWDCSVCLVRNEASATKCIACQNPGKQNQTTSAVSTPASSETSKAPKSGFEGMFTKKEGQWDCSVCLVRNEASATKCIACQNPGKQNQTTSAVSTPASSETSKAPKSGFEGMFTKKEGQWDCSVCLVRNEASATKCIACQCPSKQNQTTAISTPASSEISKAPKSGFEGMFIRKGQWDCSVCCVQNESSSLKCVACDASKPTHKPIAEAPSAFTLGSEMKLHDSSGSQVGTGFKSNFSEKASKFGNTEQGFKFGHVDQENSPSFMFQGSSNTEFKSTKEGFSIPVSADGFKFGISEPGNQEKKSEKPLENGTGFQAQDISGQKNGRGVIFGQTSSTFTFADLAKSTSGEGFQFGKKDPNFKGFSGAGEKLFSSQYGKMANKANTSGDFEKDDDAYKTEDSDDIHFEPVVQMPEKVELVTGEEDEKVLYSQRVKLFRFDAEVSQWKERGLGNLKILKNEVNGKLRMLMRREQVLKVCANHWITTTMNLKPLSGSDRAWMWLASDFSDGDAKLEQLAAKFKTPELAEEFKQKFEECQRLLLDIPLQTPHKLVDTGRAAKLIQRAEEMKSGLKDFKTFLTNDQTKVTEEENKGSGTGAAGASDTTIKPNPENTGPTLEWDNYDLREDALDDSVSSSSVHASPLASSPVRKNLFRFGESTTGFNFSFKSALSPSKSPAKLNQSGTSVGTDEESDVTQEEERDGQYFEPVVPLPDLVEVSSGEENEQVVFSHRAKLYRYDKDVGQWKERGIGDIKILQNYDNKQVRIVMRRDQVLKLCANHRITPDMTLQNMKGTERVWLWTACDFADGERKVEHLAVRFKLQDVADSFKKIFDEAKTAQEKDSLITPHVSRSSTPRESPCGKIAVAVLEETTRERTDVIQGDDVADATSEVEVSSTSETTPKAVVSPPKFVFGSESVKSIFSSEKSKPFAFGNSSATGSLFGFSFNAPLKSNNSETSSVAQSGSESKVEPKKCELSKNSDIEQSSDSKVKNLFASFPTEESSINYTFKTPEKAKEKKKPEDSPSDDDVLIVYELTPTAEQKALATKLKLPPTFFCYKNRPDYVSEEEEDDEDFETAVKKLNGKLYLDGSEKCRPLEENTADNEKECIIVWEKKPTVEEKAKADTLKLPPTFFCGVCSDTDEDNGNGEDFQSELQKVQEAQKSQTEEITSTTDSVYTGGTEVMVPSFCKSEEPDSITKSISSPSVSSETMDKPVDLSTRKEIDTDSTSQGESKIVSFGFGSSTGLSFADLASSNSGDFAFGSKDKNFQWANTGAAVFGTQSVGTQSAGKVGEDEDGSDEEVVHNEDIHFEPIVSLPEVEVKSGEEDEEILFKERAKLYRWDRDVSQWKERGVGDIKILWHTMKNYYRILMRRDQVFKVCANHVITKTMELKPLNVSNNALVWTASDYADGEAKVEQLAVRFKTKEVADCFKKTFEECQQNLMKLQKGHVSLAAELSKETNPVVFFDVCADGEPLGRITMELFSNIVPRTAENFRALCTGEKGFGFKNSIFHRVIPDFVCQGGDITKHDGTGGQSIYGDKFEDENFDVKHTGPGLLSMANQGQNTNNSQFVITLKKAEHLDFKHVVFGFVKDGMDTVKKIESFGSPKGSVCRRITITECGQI

With NUP358 (from UniProt P49792), the Kd was 150 µM and 16 µM.

For orientation: Kd means the free concentration of one partner at which half of the binding sites on the other are occupied at equilibrium, for simple one-to-one binding.
